Test results: the supplement of paper PMC9876800

System: peptide library, one residue held at a place counted from the S/T acceptor
Assay: relative phosphorylation of the sub-library (ratio to the mean residue at this position); higher = residue favoured
Procedure, shortened: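 Relative sub-library phosphorylation is a ratio to the mean residue at the same position. Purified recombinant kinases were incubated under kinase-specific conditions with biotinylated degenerate peptide sub-libraries, each fixing one residue at one position around a central Ser/Thr, using 50 μM peptide and 50 μM ATP spiked with γ-32P-ATP for 90 min. Spots captured on streptavidin membranes were phosphorimaged and quantified by densitometry.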

Sequence of RPS6KB1, construct: aa1-421, human (P23443 1-421, looked up): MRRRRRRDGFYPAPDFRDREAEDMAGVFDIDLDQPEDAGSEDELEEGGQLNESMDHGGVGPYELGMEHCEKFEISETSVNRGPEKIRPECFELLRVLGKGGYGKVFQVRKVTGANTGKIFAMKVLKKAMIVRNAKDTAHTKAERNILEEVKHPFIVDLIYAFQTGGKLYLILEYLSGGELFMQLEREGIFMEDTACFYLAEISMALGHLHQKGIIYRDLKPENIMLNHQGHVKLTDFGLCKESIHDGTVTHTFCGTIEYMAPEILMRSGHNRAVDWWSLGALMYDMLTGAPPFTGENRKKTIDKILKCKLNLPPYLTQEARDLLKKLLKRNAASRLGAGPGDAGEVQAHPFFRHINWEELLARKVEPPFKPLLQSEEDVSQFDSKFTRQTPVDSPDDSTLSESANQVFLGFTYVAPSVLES

RPS6KB1, construct: aa1-421, human (from UniProt P23443)
relative phosphorylation
Settings | at +1 | at +2 | at +3 | at +4 | at -1 | at -2 | at -3 | at -4 | at -5
A fixed | 0.718 | 0.952 | 0.865 | 0.956 | 0.716 | 0.67 | 0.516 | 0.839 | 0.539
D fixed | 0.458 | 0.433 | 0.664 | 0.933 | 0.802 | 0.231 | 0.188 | 0.433 | 0.362
E fixed | 0.849 | 0.268 | 0.694 | 0.703 | 0.577 | 0.25 | 0.194 | 0.694 | 0.323
F fixed | 2.01 | 0.855 | 1.22 | 0.909 | 0.878 | 0.823 | 0.421 | 0.73 | 0.721
G fixed | 0.804 | 1.68 | 1.13 | 1.18 | 0.562 | 0.48 | 0.318 | 0.724 | 0.608
H fixed | 1.19 | 1.65 | 1.45 | 1.38 | 1.28 | 1.14 | 0.949 | 1.11 | 1.21
I fixed | 1.07 | 0.942 | 0.914 | 0.909 | 0.768 | 0.741 | 0.37 | 0.708 | 0.593
K fixed | 0.932 | 0.794 | 0.982 | 0.943 | 1.35 | 2.56 | 1.45 | 2.08 | 1.92
L fixed | 1.18 | 0.933 | 0.976 | 0.868 | 1.12 | 1.24 | 0.426 | 0.802 | 0.714
M fixed | 1.39 | 1 | 0.794 | 0.863 | 1.19 | 0.87 | 0.452 | 0.947 | 0.529
N fixed | 0.746 | 1.41 | 0.87 | 1.07 | 1.31 | 0.763 | 0.41 | 0.904 | 0.66
P fixed | 0.328 | 0.816 | 0.955 | 1.26 | 1.2 | 0.289 | 0.297 | 0.794 | 0.645
Q fixed | 0.717 | 0.707 | 1 | 0.966 | 0.957 | 0.841 | 0.541 | 1.05 | 0.934
R fixed | 0.944 | 1.61 | 1.08 | 0.784 | 1.3 | 3.7 | 8.82 | 2.34 | 5.28
V fixed | 1.19 | 1.06 | 0.772 | 0.926 | 1.01 | 0.596 | 0.362 | 1.01 | 0.562
W fixed | 1.42 | 0.935 | 1.43 | 1.26 | 0.8 | 0.751 | 0.658 | 0.989 | 0.738
Y fixed | 1.05 | 0.955 | 1.21 | 1.09 | 1.17 | 1.05 | 0.624 | 0.849 | 0.661
pThr fixed | 0.905 | 0.467 | 0.716 | 1.36 | 0.384 | 0.275 | 0.231 | 0.55 | 0.429
pTyr fixed | 1.39 | 0.696 | 0.954 | 1.14 | 1.77 | 0.451 | 0.348 | 0.598 | 0.579
